Measurements from US20240167012.

Experiments:
[1] = target: bovine serum albumin, P02769
[2] = target: T1, gluten immunogenic peptide 33-mer from α-gliadin
T1 chain: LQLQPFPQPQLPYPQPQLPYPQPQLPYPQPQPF

[3] = target: T2, gluten immunogenic peptide 26-mer from γ-gliadin
T2 chain: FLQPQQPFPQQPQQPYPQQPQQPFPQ

bovine serum albumin, P02769, sequence (P02769 25-607): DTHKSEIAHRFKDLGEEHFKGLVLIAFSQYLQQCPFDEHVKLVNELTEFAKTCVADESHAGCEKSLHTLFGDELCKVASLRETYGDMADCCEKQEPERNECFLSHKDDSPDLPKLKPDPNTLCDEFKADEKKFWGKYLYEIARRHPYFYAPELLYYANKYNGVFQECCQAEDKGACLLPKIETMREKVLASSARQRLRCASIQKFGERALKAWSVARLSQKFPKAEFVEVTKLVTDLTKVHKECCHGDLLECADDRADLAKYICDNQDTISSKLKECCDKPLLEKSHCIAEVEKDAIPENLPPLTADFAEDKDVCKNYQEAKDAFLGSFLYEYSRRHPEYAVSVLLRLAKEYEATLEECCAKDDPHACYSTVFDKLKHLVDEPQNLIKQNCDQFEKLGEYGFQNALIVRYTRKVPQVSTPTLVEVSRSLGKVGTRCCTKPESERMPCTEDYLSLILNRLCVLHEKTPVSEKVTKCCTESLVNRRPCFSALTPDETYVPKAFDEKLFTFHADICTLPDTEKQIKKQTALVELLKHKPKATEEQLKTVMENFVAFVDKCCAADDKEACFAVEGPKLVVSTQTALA

B1: aspartic protease Rhodotorulapepsin (protein)
chain: SLTSYQNDNLWAGKITIGSPAQSFIMDFDTGSSDLWVPSSACSGSGCGTHARYTATSSSTSKAVTGKTLNVQYGDGSTASGPVYSDSVTVGGLTATGQTFGTATTLTGNFGSSPSDGLVGMAYPALSQLGVPPFFNTLWSEGRVAANSFSFRLATQNSAASELYLGGLNSAKYVAGTTGYTPVISQTYWAINTNVAVNGQAVSGLGTLAAIADTGTTLIVVPTADAQTFWASVPGAAPYSGGGGYYTFPCNQAPKVTFQFPGSLTKWATPYLNLGTVSYGSNQCVGAIVGQDAGLNAWILGDSFLKGVYTTFDFANNRVGFSKLA
relative proteolytic activity on BSA at different pH (A280 after TCA) [1]: the maximum proteolytic activity of the aspartic protease Rhodotorulapepsin was found at pH 2.5 | relative proteolytic activity on BSA at different temperatures (A280 after TCA) [1]: the aspartic protease Rhodotorulapepsin still has relative activity of 93% at 40 °C | hydrolysis of gliadin 7.5 mg/ml, SDS-PAGE (pH 3.0, 3 h) (gliadin): even only 250 µg/ml of aspartic protease Rhodotorulapepsin was included in the enzyme mixture, gliadin was completely hydrolyzed | hydrolysis of gliadin at pH 2.5 to 7.0, R5 ELISA of residual gliadin (gliadin): the maximum activity of the aspartic protease Rhodotorulapepsin on gliadin was at pH 2.5 | hydrolysis of gliadin, SDS-PAGE (gliadin): gliadin had been hydrolyzed by the aspartic acid protease Rhodotorulapepsin after 0.5 hours of reaction under all of the three pH conditions of pH2.5, pH3.0, and pH5.0 | hydrolysis of gliadin, SDS-PAGE of residual gliadin (pH 3.0, 37° C., enzyme:gliadin 1:500) (gliadin): after reaction for 30 minutes, more than 90% of gliadin has been hydrolyzed | relative activity to hydrolyze gliadin, ELISA of residual gliadin (pH 2.5, 1.5 h, pepsin 1 mg/ml plus Rhodotorulapepsin 0.05 mg/ml) (gliadin): the relative activity thereof is increased by 54% after adding the aspartic protease Rhodotorulapepsin | hydrolysis of the 33-mer, RP-HPLC (3 h, 37° C.) [2]: the optimal pH value for the hydrolysis reaction of the aspartic protease Rhodotorulapepsin on gluten immunogenic 33-mer is at pH 5.0 | hydrolysis of the 26-mer, RP-HPLC (3 h, 37° C.) [3]: the optimal pH value for the hydrolysis reaction of the aspartic protease Rhodotorulapepsin on gluten immunogenic 26-mer is at pH 3.0
